The text below walks through data of patent US7410949.

Primed or numbered codes have the meaning given here. [ ]: non-standard residue; d: D form. Pqa″ = not defined here Where only a bound is given, the exact number is not on record here.

Experiment [1] concerns the target Y1R. Description: cell-based or functional assay.
Experiment [2] has as its target Y4R. Description: cell-based or functional assay.

Y1R, sequence (P25929 whole entry): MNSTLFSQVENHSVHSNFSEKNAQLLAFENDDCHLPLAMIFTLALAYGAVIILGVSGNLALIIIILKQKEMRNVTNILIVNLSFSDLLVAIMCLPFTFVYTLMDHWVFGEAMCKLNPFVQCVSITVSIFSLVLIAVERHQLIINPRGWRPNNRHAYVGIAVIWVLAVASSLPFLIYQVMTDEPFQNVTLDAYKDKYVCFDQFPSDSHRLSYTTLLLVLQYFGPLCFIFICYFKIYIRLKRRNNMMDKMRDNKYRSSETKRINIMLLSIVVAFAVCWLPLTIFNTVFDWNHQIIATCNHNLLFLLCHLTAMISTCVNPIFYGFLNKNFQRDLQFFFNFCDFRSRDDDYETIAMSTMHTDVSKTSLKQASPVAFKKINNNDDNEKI

B1: H-Ile-Lys-Pqa-Arg-His-Tyr-Ala-Asn-Leu-Val-Thr-Arg-Gln-Arg-Tyr-NH2 (peptide)
peptide: H-IK[Pqa″]RHYANLVTRQRY-NH2
modifications: reading uncertain; also: printed as H-Ile-Lys-Pqa-Arg-His-Tyr-Ala-Asn-Leu-Val-Thr-Arg-Gln-Arg-Tyr-NH2
With B1, the Y1R EC50(nM) FLIPR in experiment [1] was more than 5000 nM. For the same molecule, the Y4R EC50(nM) FLIPR in experiment [2] is more than 5000 nM.

B2: H-Ile-Lys-Pqa-Arg-His-Ala-Leu-Asn-Leu-Val-Thr-Arg-Gln-Arg-Tyr-NH2 (peptide)
peptide: H-IK[Pqa″]RHALNLVTRQRY-NH2
modifications: reading uncertain; also: printed as H-Ile-Lys-Pqa-Arg-His-Ala-Leu-Asn-Leu-Val-Thr-Arg-Gln-Arg-Tyr-NH2
In experiment [1], B2 yielded a Y1R EC50(nM) FLIPR of more than 5000 nM. Moreover, the Y4R EC50(nM) FLIPR in experiment [2] was more than 5000 nM.

B3: H-Ile-Lys-Pqa-Arg-His-Trp-Leu-Asn-Leu-Val-Thr-Arg-Gln-Arg-Tyr-NH2 (peptide)
peptide: H-IK[Pqa″]RHWLNLVTRQRY-NH2
modifications: reading uncertain; also: printed as H-Ile-Lys-Pqa-Arg-His-Trp-Leu-Asn-Leu-Val-Thr-Arg-Gln-Arg-Tyr-NH2
B3 returned a Y4R EC50(nM) FLIPR in experiment [2] of more than 5000 nM.

B4: H-Ile-Lys-Pqa-Ala-His-Trp-Leu-Asn-Leu-Val-Thr-Arg-Gln-Arg-Tyr-NH2 (peptide)
peptide: H-IK[Pqa″]AHWLNLVTRQRY-NH2
modifications: reading uncertain; also: printed as H-Ile-Lys-Pqa-Ala-His-Trp-Leu-Asn-Leu-Val-Thr-Arg-Gln-Arg-Tyr-NH2
Consider B4, for which, in experiment [2], the Y4R EC50(nM) FLIPR was more than 5000 nM.
